Measured values as given in the supplement of paper PMC10126150.
± gives the standard deviation of the averaged measurements.

Test system: ATP
Experiment: switch fluorescence ratio, 500 uM ATP over buffer (Cy3 cluster intensity, sum of 5 cycles each) (fold (ratio)); higher = stronger signal-on switching upon ATP binding; sequences stand for … in TCGTCGGCAGCGTCAGATGTGTATAAGAGACAGTTTTTTTTTTTTTTTTTTTTTTTTT…TC
Settings: aptamer strand: ATP DNA aptamer (quencher-CACCTGGGGGAGTATTGCGGAGGAAGG + anchor), 100 nM annealed; ATP concentration: 500 uM
Procedure, shortened: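 Cy3-labelled switching-strand clusters on a modified Illumina MiSeq flow-cell were annealed to 100 nM quencher-labelled ATP aptamer and imaged first in selection buffer, then after 15 min with 500 uM ATP at 22 °C. NaOH stripping and re-annealing separated each of five buffer/ATP cycles, and clusters outside 100-1000 RFU were excluded. The fluorescence ratio sums target-cycle Cy3 intensity over buffer-cycle Cy3 intensity per cluster and averages it per switch-domain sequence.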
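Note: ATP exposure 15 min at 22 °C before imaging.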

Point of comparison: CTCGATGTGA, switch fluorescence ratio 1.05 ± 0.071. Against it:
- CTAGAGGGCG — within error, 1.014 ± 0.0084
- CTAGATGTAT — within error, 0.985 ± 0.017
- CTAGATGTGG — within error, 0.983 ± 0.059
- CTAGCACTGT — the same, 1.045 ± 0.0022
- CTAGCCGGGG — within error, 1.01 ± 0.031
- CTAGGAGATA — lower, 0.9736 ± 0.0014
- CTAGGCAACG — within error, 0.982 ± 0.028
- CTAGGGCGCT — within error, 0.983 ± 0.032
- CTAGGGGATA — within error, 1.02 ± 0.014
- CTAGGGGGCA — within error, 0.982 ± 0.037
- CTAGGGTAAT — lower, 0.9675 ± 0.0036
- CTAGGGTGTG — within error, 0.988 ± 0.034
- CTAGGTATCA — within error, 0.965 ± 0.054
- CTAGGTGGGT — within error, 1.01 ± 0.027
- CTAGGTTCGC — within error, 1.01 ± 0.012
- CTAGTCACCG — within error, 0.999 ± 0.019
- CTAGTCGTCG — within error, 1.02 ± 0.019
- CTAGTGATTG — within error, 0.99358 ± 0.0003
- CTAGTGGCTG — within error, 1.02 ± 0.03
- CTAGTTAAGT — within error, 0.991 ± 0.073
- CTAGTTCAGC — within error, 0.99 ± 0.028
- CTAGTTTGGT — within error, 1.008 ± 0.0049
- CTATAAGGGG — within error, 0.999 ± 0.026
- CTATACAGCA — within error, 1.06 ± 0.044
- CTATACAGTG — within error, 1.02 ± 0.011
- CTATACTGAG — the same, 1.05 ± 0.045
- CTATAGAAGG — within error, 1.02 ± 0.025
- CTATAGATTT — within error, 0.973 ± 0.02
- CTATAGGGGG — within error, 1.007 ± 0.01
- CTATAGGTCA — within error, 0.981 ± 0.036
- CTATCACCTG — the same, 1.05 ± 0.021
- CTATCGATAG — within error, 0.993 ± 0.035
- CTATCGGGAC — within error, 1.09 ± 0.026
- CTATCGGGAG — within error, 0.9831 ± 0.0025
- CTATCTGTTT — lower, 0.9561 ± 0.002
- CTATGAAAAG — within error, 1 ± 0.021
- CTATGAAGGG — within error, 0.963 ± 0.034
- CTATGCGGAA — within error, 1.06 ± 0.038
- CTATGCGGTC — within error, 2.39 ± 1.8
- CTATGCTGGT — within error, 1.01 ± 0.037
- CTATGGTTTT — within error, 1.014 ± 0.003
- CTATGTCGGT — within error, 0.974 ± 0.015
- CTATTAAGGG — within error, 0.976 ± 0.056
- CTATTAATGA — within error, 1.03 ± 0.057
- CTATTATGTT — within error, 1 ± 0.019
- CTATTCAGGT — within error, 1.01 ± 0.032
- CTATTCCTGT — within error, 0.995 ± 0.014
- CTATTCGGCC — within error, 0.986 ± 0.02
- CTATTCGGGG — within error, 0.981 ± 0.01
- CTATTGGGAG — within error, 1.03 ± 0.032
- CTATTGTTTT — within error, 1.03 ± 0.079
- CTATTTCATA — within error, 0.992 ± 0.018
- CTATTTCCTT — within error, 0.975 ± 0.031
- CTATTTGGCA — within error, 1.0113 ± 4.2e-05
- CTATTTTGGC — within error, 0.966 ± 0.038
- CTATTTTTTT — within error, 1.01 ± 0.02
- CTCAATTCAA — within error, 1.02 ± 0.015
- CTCAGCAGGG — higher, 1.73 ± 0.17
- CTCAGGGTTT — within error, 1.04 ± 0.023
- CTCAGTAATT — higher, 1.38 ± 0.046
- CTCAGTAGGC — within error, 1.13 ± 0.066
- CTCAGTCGGG — within error, 0.991 ± 0.01
- CTCATACCTG — the same, 1.05 ± 0.021
- CTCATAGGGG — within error, 1.07 ± 0.024
- CTCATGAAAA — within error, 1.02 ± 0.02
- CTCATGGGTT — within error, 1.02 ± 0.0011
- CTCATGGTTG — lower, 0.9638 ± 0.007
- CTCATTGTTG — within error, 0.992 ± 0.014
- CTCCCCAGGG — higher, 2.689 ± 0.013
- CTCCCCCGTC — within error, 1.46 ± 0.37
- CTCCCGTCCA — higher, 1.28 ± 0.085
- CTCCGGCGCA — higher, 4.19 ± 0.76
- CTCCGGCTGG — within error, 1.19 ± 0.14
- CTCCGGGCCT — higher, 1.42 ± 0.12
- CTCCTAAAGA — the same, 1.05 ± 0.013
- CTCCTACACC — higher, 1.25 ± 0.041
- CTCGAAGTGG — within error, 0.996 ± 0.021
- CTCGAGGGGG — within error, 1.18 ± 0.34
- CTCGAGTAGT — within error, 1.04 ± 0.02
- CTCGATAAAA — within error, 0.975 ± 0.022
- CTCGATGCGT — within error, 1.04 ± 0.013
- CTCGCAGGCT — higher, 1.25 ± 0.037
- CTCGCTGGTA — within error, 1.003 ± 0.0081
- CTCGGATAAG — within error, 0.9922 ± 0.007
